IntAct's records for PubMed 35512704

B1: Mothers against decapentaplegic homolog 4 (Homo sapiens), Q13485 (parent)
chain: MDNMSITNTPTSNDACLSIVHSLMCHRQGGESETFAKRAIESLVKKLKEKKDELDSLITAITTNGAHPSKCVTIQRTLDGRLQVAGRKGFPHVIYARLWRWPDLHKNELKHVKYCQYAFDLKCDSVCVNPYHYERVVSPGIDLSGLTLQSNAPSSMMVKDEYVHDFEGQPSLSTEGHSIQTIQHPPSNRASTETYSTPALLAPSESNATSTANFPNIPVASTSQPASILGGSHSEGLLQIASGPQPGQQQNGFTGQPATYHHNSTTTWTGSRTAPYTPNLPHHQNGHLQHHPPMPPHPGHYWPVHNELAFQPPISNHPAPEYWCSIAYFEMDVQVGETFKVPSSCPIVTVDGYVDPSGGDRFCLGQLSNVHRTEAIERARLHIGKGVQLECKGEGDVWVRCLSDHAVFVQSYYLDREAGRAPGDAVHKIYPSAYIKVFDLRQCHRQMQQQAATAQAAAAAQAAAVAGNIPGPGSVGGIAPAISLSAAAGIGVDDLRRLCILRMSFVKGWGPDYPRQSIKETPCWIEIHLHRALQLLDEVLHTMPIADPQPLD
partner: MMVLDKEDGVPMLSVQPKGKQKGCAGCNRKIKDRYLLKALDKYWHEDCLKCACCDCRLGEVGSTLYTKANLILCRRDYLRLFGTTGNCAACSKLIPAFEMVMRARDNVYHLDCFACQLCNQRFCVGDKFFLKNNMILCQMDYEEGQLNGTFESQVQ
B2: Mothers against decapentaplegic homolog 4 (Homo sapiens), Q13485 (parent)
chain: B1 chain
partner: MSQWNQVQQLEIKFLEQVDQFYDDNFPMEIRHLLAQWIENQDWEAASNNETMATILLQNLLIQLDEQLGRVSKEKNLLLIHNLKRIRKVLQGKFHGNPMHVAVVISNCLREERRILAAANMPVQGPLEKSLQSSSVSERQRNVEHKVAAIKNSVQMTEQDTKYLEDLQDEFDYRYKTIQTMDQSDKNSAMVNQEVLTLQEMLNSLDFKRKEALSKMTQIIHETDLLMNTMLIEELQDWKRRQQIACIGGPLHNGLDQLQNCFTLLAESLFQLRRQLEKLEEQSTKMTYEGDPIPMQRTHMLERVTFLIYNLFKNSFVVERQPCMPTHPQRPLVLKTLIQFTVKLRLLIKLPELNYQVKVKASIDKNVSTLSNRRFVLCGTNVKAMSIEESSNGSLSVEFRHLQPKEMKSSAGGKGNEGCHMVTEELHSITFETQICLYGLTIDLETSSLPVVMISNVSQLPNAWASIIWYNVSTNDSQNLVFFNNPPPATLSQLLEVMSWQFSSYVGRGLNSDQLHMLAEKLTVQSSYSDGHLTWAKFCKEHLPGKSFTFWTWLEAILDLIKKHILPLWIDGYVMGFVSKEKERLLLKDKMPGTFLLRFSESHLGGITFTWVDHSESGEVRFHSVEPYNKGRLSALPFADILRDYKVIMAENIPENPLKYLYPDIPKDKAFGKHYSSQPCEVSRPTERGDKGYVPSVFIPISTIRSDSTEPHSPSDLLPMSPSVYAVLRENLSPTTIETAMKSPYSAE
B3: Mothers against decapentaplegic homolog 4 (Homo sapiens), Q13485 (parent)
chain: B1 chain
partner: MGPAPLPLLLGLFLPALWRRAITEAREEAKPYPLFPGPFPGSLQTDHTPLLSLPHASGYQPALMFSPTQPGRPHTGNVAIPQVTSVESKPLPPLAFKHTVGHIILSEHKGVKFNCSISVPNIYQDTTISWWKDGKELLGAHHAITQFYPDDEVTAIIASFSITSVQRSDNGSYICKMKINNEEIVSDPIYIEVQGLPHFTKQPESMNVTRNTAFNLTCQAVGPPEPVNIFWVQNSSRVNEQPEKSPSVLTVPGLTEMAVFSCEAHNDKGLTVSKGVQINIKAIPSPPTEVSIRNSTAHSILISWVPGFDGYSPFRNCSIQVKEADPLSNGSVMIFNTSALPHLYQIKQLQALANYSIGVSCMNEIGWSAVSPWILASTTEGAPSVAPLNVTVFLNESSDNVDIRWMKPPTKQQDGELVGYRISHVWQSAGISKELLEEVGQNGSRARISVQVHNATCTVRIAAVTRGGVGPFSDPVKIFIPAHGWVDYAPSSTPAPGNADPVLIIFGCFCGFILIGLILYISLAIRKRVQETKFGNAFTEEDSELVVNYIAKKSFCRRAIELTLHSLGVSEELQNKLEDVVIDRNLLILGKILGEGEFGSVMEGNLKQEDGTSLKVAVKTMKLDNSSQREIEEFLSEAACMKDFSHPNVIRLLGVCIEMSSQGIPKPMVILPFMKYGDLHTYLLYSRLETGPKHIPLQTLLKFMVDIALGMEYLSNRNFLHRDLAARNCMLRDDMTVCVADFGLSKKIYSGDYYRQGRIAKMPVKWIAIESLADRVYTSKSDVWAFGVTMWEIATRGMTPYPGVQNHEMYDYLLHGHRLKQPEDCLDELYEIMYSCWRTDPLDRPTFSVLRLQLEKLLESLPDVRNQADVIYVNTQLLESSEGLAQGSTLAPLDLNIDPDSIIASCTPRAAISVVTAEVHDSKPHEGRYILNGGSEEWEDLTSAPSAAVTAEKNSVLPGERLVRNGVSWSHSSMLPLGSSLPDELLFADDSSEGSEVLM
B4: Mothers against decapentaplegic homolog 4 (Homo sapiens), Q13485 (parent)
chain: B1 chain
partner: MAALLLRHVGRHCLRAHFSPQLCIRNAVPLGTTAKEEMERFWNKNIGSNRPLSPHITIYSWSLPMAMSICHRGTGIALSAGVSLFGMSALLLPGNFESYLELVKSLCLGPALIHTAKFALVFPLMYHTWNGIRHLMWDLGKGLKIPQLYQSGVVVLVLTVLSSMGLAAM
B5: Mothers against decapentaplegic homolog 4 (Homo sapiens), Q13485 (parent)
chain: B1 chain
partner: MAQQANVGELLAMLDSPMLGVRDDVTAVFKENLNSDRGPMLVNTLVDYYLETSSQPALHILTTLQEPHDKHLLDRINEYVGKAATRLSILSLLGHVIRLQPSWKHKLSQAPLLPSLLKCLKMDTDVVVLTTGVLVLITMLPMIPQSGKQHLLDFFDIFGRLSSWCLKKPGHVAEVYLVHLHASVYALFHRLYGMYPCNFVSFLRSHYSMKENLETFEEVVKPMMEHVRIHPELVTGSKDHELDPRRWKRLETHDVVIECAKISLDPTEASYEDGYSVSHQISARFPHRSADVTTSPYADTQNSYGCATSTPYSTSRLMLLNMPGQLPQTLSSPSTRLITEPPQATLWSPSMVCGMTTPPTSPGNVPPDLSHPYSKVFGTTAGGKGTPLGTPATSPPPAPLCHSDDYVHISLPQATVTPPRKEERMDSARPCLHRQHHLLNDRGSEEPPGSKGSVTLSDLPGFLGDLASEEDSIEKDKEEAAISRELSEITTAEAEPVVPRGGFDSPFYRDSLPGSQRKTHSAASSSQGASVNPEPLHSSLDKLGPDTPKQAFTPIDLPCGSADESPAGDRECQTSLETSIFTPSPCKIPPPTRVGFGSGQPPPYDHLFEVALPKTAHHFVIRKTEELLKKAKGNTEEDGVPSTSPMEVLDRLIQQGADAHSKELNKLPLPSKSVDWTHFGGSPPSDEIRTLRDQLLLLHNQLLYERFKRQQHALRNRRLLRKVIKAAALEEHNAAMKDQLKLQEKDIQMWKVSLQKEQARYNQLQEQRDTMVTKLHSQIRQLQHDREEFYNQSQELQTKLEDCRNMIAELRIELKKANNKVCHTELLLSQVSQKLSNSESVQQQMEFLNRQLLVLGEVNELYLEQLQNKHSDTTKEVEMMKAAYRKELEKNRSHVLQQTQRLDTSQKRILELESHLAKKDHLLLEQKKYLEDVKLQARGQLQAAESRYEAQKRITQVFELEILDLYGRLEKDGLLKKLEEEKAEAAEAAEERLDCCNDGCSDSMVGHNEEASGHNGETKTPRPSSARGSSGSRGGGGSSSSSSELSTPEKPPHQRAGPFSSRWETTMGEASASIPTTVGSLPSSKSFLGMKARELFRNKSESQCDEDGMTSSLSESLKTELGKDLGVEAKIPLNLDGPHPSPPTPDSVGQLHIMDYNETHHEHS
B6: Mothers against decapentaplegic homolog 4 (Homo sapiens), Q13485 (parent)
chain: B1 chain
partner: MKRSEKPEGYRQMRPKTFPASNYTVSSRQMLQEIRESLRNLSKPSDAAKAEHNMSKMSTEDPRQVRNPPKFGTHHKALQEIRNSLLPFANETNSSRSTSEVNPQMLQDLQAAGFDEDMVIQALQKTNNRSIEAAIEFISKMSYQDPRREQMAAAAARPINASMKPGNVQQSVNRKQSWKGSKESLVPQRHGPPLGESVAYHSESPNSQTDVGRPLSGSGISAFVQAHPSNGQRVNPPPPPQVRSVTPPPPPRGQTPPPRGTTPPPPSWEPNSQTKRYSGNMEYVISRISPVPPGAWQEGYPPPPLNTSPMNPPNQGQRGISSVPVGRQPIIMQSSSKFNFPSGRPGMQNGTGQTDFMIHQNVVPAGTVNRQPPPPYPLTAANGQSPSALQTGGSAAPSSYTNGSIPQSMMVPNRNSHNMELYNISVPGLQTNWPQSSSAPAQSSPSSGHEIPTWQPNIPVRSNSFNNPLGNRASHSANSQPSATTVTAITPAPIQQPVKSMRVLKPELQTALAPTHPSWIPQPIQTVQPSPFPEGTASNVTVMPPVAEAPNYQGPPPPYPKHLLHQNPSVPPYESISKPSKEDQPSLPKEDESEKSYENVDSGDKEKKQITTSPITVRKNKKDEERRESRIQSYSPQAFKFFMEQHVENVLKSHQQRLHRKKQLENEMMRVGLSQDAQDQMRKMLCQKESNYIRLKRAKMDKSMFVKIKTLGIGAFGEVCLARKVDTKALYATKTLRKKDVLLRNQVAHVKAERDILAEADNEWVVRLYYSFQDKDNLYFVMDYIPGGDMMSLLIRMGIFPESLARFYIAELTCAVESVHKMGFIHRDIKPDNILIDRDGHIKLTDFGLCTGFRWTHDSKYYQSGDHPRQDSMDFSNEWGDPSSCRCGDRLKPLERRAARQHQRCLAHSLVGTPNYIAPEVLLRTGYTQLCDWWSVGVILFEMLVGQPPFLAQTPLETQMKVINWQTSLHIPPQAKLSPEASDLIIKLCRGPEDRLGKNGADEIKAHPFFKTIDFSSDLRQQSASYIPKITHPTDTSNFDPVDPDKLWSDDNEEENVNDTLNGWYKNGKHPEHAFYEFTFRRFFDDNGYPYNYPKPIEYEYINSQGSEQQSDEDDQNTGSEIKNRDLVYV

Variants of: B1
Conditions: with rbtn1_human LMO1, P25800

Row | effect of a mutation on the interaction | Variant
1 | with no effect | R361H

Variants of: B1
Conditions: with rbtn1_human LMO1, P25800
Remark: another data set of the same source

Row | effect of a mutation on the interaction | Variant
2 | with no effect | R361C

Variants of: B1
Conditions: with rbtn1_human LMO1, P25800
Remark: another data set of the same source

Row | effect of a mutation on the interaction | Variant
3 | with no effect | D351H

Variants of: B2
Conditions: with stat4_human STAT4, Q14765

Row | effect of a mutation on the interaction | Variant
4 | with no effect | G386D

Variants of: B2
Conditions: with stat4_human STAT4, Q14765
Remark: another data set of the same source

Row | effect of a mutation on the interaction | Variant
5 | with no effect | D351H

Variants of: B2
Conditions: with stat4_human STAT4, Q14765
Remark: another data set of the same source

Row | effect of a mutation on the interaction | Variant
6 | with no effect | R361H

Variants of: B2
Conditions: with stat4_human STAT4, Q14765
Remark: another data set of the same source

Row | effect of a mutation on the interaction | Variant
7 | with no effect | R361C

Variants of: B3
Conditions: with mertk_human MERTK

Row | effect of a mutation on the interaction | Variant
8 | with no effect | G386D

Variants of: B3
Conditions: with mertk_human MERTK
Remark: another data set of the same source

Row | effect of a mutation on the interaction | Variant
9 | with no effect | D351H

Variants of: B3
Conditions: with mertk_human MERTK
Remark: another data set of the same source

Row | effect of a mutation on the interaction | Variant
10 | with no effect | R361H

Variants of: B3
Conditions: with mertk_human MERTK
Remark: another data set of the same source

Row | effect of a mutation on the interaction | Variant
11 | with no effect | R361C

Variants of: B4
Conditions: with c560_human SDHC

Row | effect of a mutation on the interaction | Variant
12 | with no effect | D351H

Variants of: B4
Conditions: with c560_human SDHC
Remark: another data set of the same source

Row | effect of a mutation on the interaction | Variant
13 | with no effect | G386D

Variants of: B4
Conditions: with c560_human SDHC
Remark: another data set of the same source

Row | effect of a mutation on the interaction | Variant
14 | with no effect | R361H

Variants of: B4
Conditions: with c560_human SDHC
Remark: another data set of the same source

Row | effect of a mutation on the interaction | Variant
15 | with no effect | R361C

Variants of: B5
Conditions: with tsc1_human TSC1, Q92574

Row | effect of a mutation on the interaction | Variant
16 | with no effect | D351H

Variants of: B5
Conditions: with tsc1_human TSC1, Q92574
Remark: another data set of the same source

Row | effect of a mutation on the interaction | Variant
17 | with no effect | G386D

Variants of: B5
Conditions: with tsc1_human TSC1, Q92574
Remark: another data set of the same source

Row | effect of a mutation on the interaction | Variant
18 | with no effect | R361C

Variants of: B5
Conditions: with tsc1_human TSC1, Q92574
Remark: another data set of the same source

Row | effect of a mutation on the interaction | Variant
19 | with no effect | R361H

Variants of: B6
Conditions: with lats1_human LATS1, O95835

Row | effect of a mutation on the interaction | Variant
20 | with no effect | D351H

Variants of: B6
Conditions: with lats1_human LATS1, O95835
Remark: another data set of the same source

Row | effect of a mutation on the interaction | Variant
21 | with no effect | R361H

Variants of: B6
Conditions: with lats1_human LATS1, O95835
Remark: another data set of the same source

Row | effect of a mutation on the interaction | Variant
22 | with no effect | R361C

Variants of: B6
Conditions: with lats1_human LATS1, O95835
Remark: another data set of the same source

Row | effect of a mutation on the interaction | Variant
23 | with no effect | G386D

Variants of: B6
Conditions: with lats1_human LATS1, O95835
Remark: another data set of the same source

Row | effect of a mutation on the interaction | Variant
24 | increasing interaction strength | G386D
